First the molecules themselves.
T1: AQP2 protein (UniProt P41181 1-271, limits assumed)
T1 construct: also called protein AQP2
T1 sequence (looked up): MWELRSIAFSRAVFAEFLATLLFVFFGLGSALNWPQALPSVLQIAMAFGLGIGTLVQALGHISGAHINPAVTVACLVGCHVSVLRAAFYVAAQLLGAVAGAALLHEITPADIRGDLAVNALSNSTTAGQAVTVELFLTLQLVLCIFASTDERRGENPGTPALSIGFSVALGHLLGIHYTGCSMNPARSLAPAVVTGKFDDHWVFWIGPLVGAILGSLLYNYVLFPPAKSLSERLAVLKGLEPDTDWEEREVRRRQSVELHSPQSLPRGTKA

B1: micropeptide HMMW (peptide)
peptide: MERAGVPGFSPRRSSVEAKMQSTSCSVRKSSTVTAWPAVVLLLSWGQRRGG
notes: 51-residue micropeptide encoded by a lncRNA
B2: HMMW-31A (peptide)
peptide: B1 peptide with S31A
notes: Alanine mutant of HMMW at position 31; solid-phase synthesis
B3: HMMW-19A (peptide)
peptide: B1 peptide with K19A
notes: Alanine mutant of HMMW at position 19; solid-phase synthesis
B4: HMMW-41A (peptide)
peptide: B1 peptide with L41A
notes: Alanine mutant of HMMW at position 41; solid-phase synthesis
B5: HMMW-32A (peptide)
peptide: B1 peptide with T32A
notes: Alanine mutant of HMMW at position 32; solid-phase synthesis
B6: HMMW-17A (peptide)
peptide: B1 peptide with E17A
notes: Alanine mutant of HMMW at position 17; solid-phase synthesis
B7: HMMW-20A (peptide)
peptide: B1 peptide with M20A
notes: Alanine mutant of HMMW at position 20; solid-phase synthesis
B8: HMMW-44A (peptide)
peptide: B1 peptide with S44A
notes: Alanine mutant of HMMW at position 44; solid-phase synthesis
B9: HMMW-43A (peptide)
peptide: B1 peptide with L43A
notes: Alanine mutant of HMMW at position 43; solid-phase synthesis
B10: HMMW-50A (peptide)
peptide: B1 peptide with G50A
notes: Alanine mutant of HMMW at position 50; solid-phase synthesis
B11: HMMW-45A (peptide)
peptide: B1 peptide with W45A
notes: Alanine mutant of HMMW at position 45; solid-phase synthesis
B12: HMMW-11A (peptide)
peptide: B1 peptide with P11A
notes: Alanine mutant of HMMW at position 11; solid-phase synthesis
B13: HMMW-13A (peptide)
peptide: B1 peptide with R13A
notes: Alanine mutant of HMMW at position 13; solid-phase synthesis
B14: HMMW-21A (peptide)
peptide: B1 peptide with Q21A
notes: Alanine mutant of HMMW at position 21; solid-phase synthesis
B15: HMMW-2A (peptide)
peptide: B1 peptide with E2A
notes: Alanine mutant of HMMW at position 2; solid-phase synthesis
B16: HMMW-3A (peptide)
peptide: B1 peptide with R3A
notes: Alanine mutant of HMMW at position 3; solid-phase synthesis
B17: HMMW-28A (peptide)
peptide: B1 peptide with R28A
notes: Alanine mutant of HMMW at position 28; solid-phase synthesis
B18: HMMW-42A (peptide)
peptide: B1 peptide with L42A
notes: Alanine mutant of HMMW at position 42; solid-phase synthesis
B19: HMMW-30A (peptide)
peptide: B1 peptide with S30A
notes: Alanine mutant of HMMW at position 30; solid-phase synthesis
B20: HMMW-48A (peptide)
peptide: B1 peptide with R48A
notes: Alanine mutant of HMMW at position 48; solid-phase synthesis
B21: HMMW-8A (peptide)
peptide: B1 peptide with G8A
notes: Alanine mutant of HMMW at position 8; solid-phase synthesis
B22: HMMW-49A (peptide)
peptide: B1 peptide with R49A
notes: Alanine mutant of HMMW at position 49; solid-phase synthesis
B23: HMMW-10A (peptide)
peptide: B1 peptide with S10A
notes: Alanine mutant of HMMW at position 10; solid-phase synthesis
B24: HMMW-27A (peptide)
peptide: B1 peptide with V27A
notes: Alanine mutant of HMMW at position 27; solid-phase synthesis
B25: HMMW-40A (peptide)
peptide: B1 peptide with V40A
notes: Alanine mutant of HMMW at position 40; solid-phase synthesis
B26: HMMW-9A (peptide)
peptide: B1 peptide with F9A
notes: Alanine mutant of HMMW at position 9; solid-phase synthesis
B27: HMMW-22A (peptide)
peptide: B1 peptide with S22A
notes: Alanine mutant of HMMW at position 22; solid-phase synthesis
B28: HMMW-12A (peptide)
peptide: B1 peptide with R12A
notes: Alanine mutant of HMMW at position 12; solid-phase synthesis
B29: HMMW-25A (peptide)
peptide: B1 peptide with C25A
notes: Alanine mutant of HMMW at position 25; solid-phase synthesis

Substitutions are numbered along the chain they refer to. Where no end group is shown, it is not given here.

Test system in the first data set: not listed separately
Nature of the data set: Solubility of the synthesized polypeptides. Conditions: PBS/0.1% DMSO.
“MERAGVSPRRSSVEAKMQSTSCSVRKSSTVTAWPAVVLLLSWGQRRGG [HMMW-3]”: the “Solubility PBS/0.1% DMSO” value was “Soluble”.
Regarding “MERAGVPGFSPRRSSKMQSTSCSVRKSSTVTAWPAVVLLLSWGQRRGG [HMMW-6]”, the “Solubility PBS/0.1% DMSO” value is on record as “Soluble”.
As for “AGVPGFSPRRSSVEAKMQSTSCSVRKSSTVTAWPAVVLLLSWGQRRGG [HMMW-1]”, the “Solubility PBS/0.1% DMSO” value was “Soluble”.
As to “MERAGVPGFSPRVEAKMQSTSCSVRKSSTVTAWPAVVLLLSWGQRRGG [HMMW-5]”, the “Solubility PBS/0.1% DMSO” value was “Soluble”.
Still for that read-out and setting: as for “MERAGVPGFSPRRSSVEAKMQSTSRKSSTVTAWPAVVLLLSWGQRRGG [HMMW-9]”, the entry is “Soluble”; as for “MERAGVPGFSPRRSSVEAKMQSTSCSVRKSSTVTAWPAVVLLGQRRGG [HMMW-15]”, “Soluble”.
For the molecule “MERAGVPGFSPRRSSVEAKMQSTSCSVRKSSTVPAVVLLLSWGQRRGG [HMMW-12]”, the “Solubility PBS/0.1% DMSO” value was “Soluble”.
Turning to “MERAGVPGFSPRRSSVEAKMQSTSCSVRKSSTVTAWPAVLSWGQRRGG [HMMW-14]”, the “Solubility PBS/0.1% DMSO” value is recorded as “Soluble”.
Same read-out and setting: to “MERAGVPGFSPRRSSVEAKMQCSVRKSSTVTAWPAVVLLLSWGQRRGG [HMMW-8]” belongs “Soluble”; to “MERPGFSPRRSSVEAKMQSTSCSVRKSSTVTAWPAVVLLLSWGQRRGG [HMMW-2]”, “Soluble”; to “MERAGVPGFSPRRSSVEASTSCSVRKSSTVTAWPAVVLLLSWGQRRGG [HMMW-7]”, “Soluble”.
For the molecule “MERAGVPGFSPRRSSVEAKMQSTSCSVRKSSTVTAWPAVVLLLSWRGG [HMMW-16]”, the “Solubility PBS/0.1% DMSO” value is “Soluble”.

The data set is the same for the next values; noted with them: polypeptides obtained by chemical solid-phase synthesis.
“MQSTSCSVRKSSTVTAWPAVVLLLSWGQRRGG [HMMW20-51]”: the solubility result is listed as “good solubility”.
Consider “SPRRSSVEAKMQSTSCSVRKSSTVTAWPAVVLLLSWGQRRGG [HMMW10-51]”, for which the solubility result is “good solubility”.
On to “SVEAKMQSTSCSVRKSSTVTAWPAVVLLLSWGQRRGG [HMMW15-51]”, for which the solubility result is listed as “good solubility”.
For the molecule “GVPGFSPRRSSVEAKMQSTSCSVRKSSTVTAWPAVVLLLSWGQRRGG [HMMW5-51]”, the solubility result is on record as “good solubility”.

For a further data set, the target named is T1, AQP2 protein. The data set is described as follows: microscale thermophoresis (MST); column head 'Affinity (µM)'.
Conditions: not given
How it is done: Molecular docking simulation was performed on the micropeptide HMMW and a binding protein AQP2 thereof using MOE software, to identify predicted potential interaction sites. The docking simulation was divided into the following two groups: (1) random docking of an AQP2 homotetramer with the HMMW, without limiting a binding region; and (2) random docking of an AQP2 monomer with the HMMW, without limiting a binding region. Interaction sites obtained from the above two docking methods were integrated and analyzed, and all possible binding amino acids were selected as potential key sites for alanine (Ala) mutations. Due to alanine being the smallest chiral amino acid, the impact of a specific amino acid on an overall protein biological activity can be distinguished by systematically and sequentially substituting each amino acid in a sequence with Ala. The predicted polypeptides were obtained by solid-phase synthesis, and the affinity of different mutated polypeptides to the AQP2 protein was detected by microscale thermophoresis (MST) assay.
The molecule B1 returned a Kd of 3.07 µM.
Molecule B2 returned a Kd of 3.06 µM.
B3 returned a Kd of 5.11 µM.
B4 returned a Kd of 4.32 µM.
B5 gave a Kd of 2.01 µM.
On the same count and under the same terms, to B6 belongs 3.93 µM; to B7, 2.59 µM.
Still for that read-out and setting: as for B8, the figure is 5.23 µM; as for B9, 0.36 µM.
The same measure, in the same setting: to B10 belongs 0.55 µM; to B11, 3.24 µM.
For B12, binding was put at a Kd of 2.33 µM.
Same read-out and setting: to B13 belongs 6.61 µM; to B14, 7.64 µM; to B15, 2.5 µM.
Molecule B16 returned a Kd of 2.8 µM.
On to B17, for which binding was characterised by a dissociation constant (Kd) of 2.27 µM.
The molecule B18 came in with a Kd of 0.25 µM.
As for B19, the Kd came out at 2.23 µM.
B20 yielded a Kd of 11.6 µM.
Consider B21, for which the Kd is 14.8 µM.
Consider B22, for which the affinity, expressed as Kd, was 20.8 µM.
B23 yielded a Kd of 4.03 µM.
As for B24, the Kd worked out at 2.39 µM.
B25 gave a Kd of 1.19 µM.
On to B26, for which the affinity, expressed as Kd, was 3.95 µM.
B27 showed a Kd of 3.21 µM.
B28 returned a Kd of 1.12 µM.
The molecule B29 came in with a Kd of 1.97 µM.
